B1: TfHex (β-N-acetylhexosaminidase from Talaromyces flavus) (Talaromyces flavus; E332A) (protein)
chain: VAVNPLPAPRSITWGTSGPISVPHNVDVKLPKNAIINDAWERAWTSIKQLRWVPQATEAPISSYEPFPTVAPTSASTASSTPLPSSSAAAVAARSQKRGHQKGSHEKRGHSQSTLRTVTVTVSDLNADLQAEVDESYTLVLDSGSSTLAITANTTWGALHAFTTLQQLVIYQDNSLIIEQPVHIEDSPLYPWRGVMIDTGRNFITVPKIKEQIDGMALSKLNILHWHLDDSQSWPVHMDTYPQMTNDAYSPWQTYSHEDIKDIIEYARARAVRVVPEVDMPGHSAAGWQQVDPSIVACAHSWWSNDNWPYHTAVAPTPGQLDPLNNKTYGVVEKVYNELSGIFTDDFFHVGGDELQTGCYNFSTYVSDYLAADPSRTYNDVTQYWVDHAFPIFKKIQNRKLVIWEDLIINNPHAPNVSTENLLVQSWNNGLTNINNLTNLGYDVLVSSSDFMYLDCGYGGFVTNDPRYDVMVNPDAVDGLANFNWGGNGGSWCAPYKTWQRIYDYDFTTNLTDAQAAHVKGAVAPLWSEQVDDTVISGKMWPRAAALAELVWSGNKDPKTGDKRTTYMTQRILNFREYLVANGVQAAPLVPKYCLQHPHSCDLYYDQTAVV
notes: secreted via alpha-factor, pPICZαA, Pichia pastoris KM71H, cation-exchange purified; tetramer of two catalytic subunits and two non-covalently linked propeptides
B2: TfHex (β-N-acetylhexosaminidase from Talaromyces flavus) (Talaromyces flavus; E332N) (protein)
chain: B1 chain with A315N
notes: as for B1
B3: TfHex (β-N-acetylhexosaminidase from Talaromyces flavus) (Talaromyces flavus; E332G) (protein)
chain: B1 chain with A315G
notes: as for B1
B4: TfHex (β-N-acetylhexosaminidase from Talaromyces flavus) (Talaromyces flavus; E332T) (protein)
chain: B1 chain with A315T
notes: as for B1

Where a chain is given by its changes, count along the chain named. Names may count otherwise.

Substrate in this series: CC(=O)N[C@H]1[C@H](Oc2ccc([N+](=O)[O-])cc2)O[C@H](CO)[C@@H](O)[C@@H]1O
The experiment in a line: discontinuous p-nitrophenolate release assay, non-linear regression. The series is classed as biochemical, Talaromyces flavus. Conditions: McIlvaine buffer pH 5.0, 25 °C.
In general, Km refers to the concentration of substrate that gives half-maximal velocity. Broadly, the kcat is the maximal rate divided by the concentration of active sites. On to B1, for which the Km amounted to 880 ± 70 µM and the kcat stood at 30 ± 1 s⁻¹.
As for B2, the Km is 1220 ± 70 µM and the catalytic constant (kcat) turned out to be 22.5 ± 0.4 s⁻¹.
In the case of B3, the Michaelis constant (Km) was 1800 ± 200 µM and the catalytic constant (kcat) stood at 51 ± 2 s⁻¹.
Turning to B4, the Km is 800 ± 100 µM and the turnover number (kcat) came out at 13.3 ± 0.4 s⁻¹.

Source of the values: PMC9604439, “Mutation Hotspot for Changing the Substrate Specificity of β-N-Acetylhexosaminidase: A Library of GlcNAcases” (International Journal of Molecular Sciences, 2022).
